Measurements as given in patent US20250152732A1.

Molecular target: target ligand expressed on MutuDC1940 cells
Experiment: cell-based or functional assay

## antibody-bound lipid nanoparticle carrying a fragment of the NLDC145 antibody conjugated with the membrane scaffold protein ApoA1 (scFv)
  relative expression level of the Firefly luciferase gene against general lipid nanoparticles, MutuDC1940 cells, 10% FBS, LP ratio 1,000:1 to 100,000:1: 5 to 20 times
  relative expression level of the Firefly luciferase gene against general lipid nanoparticles, MutuDC1940 cells, no serum, LP ratio 500:1 to 10,000:1: 5 to 20 times

## antibody-bound lipid nanoparticle carrying a fragment of the NLDC145 antibody conjugated with the membrane scaffold protein ApoE3 (scFv)
  relative expression level of the Firefly luciferase gene against general lipid nanoparticles, MutuDC1940 cells, 10% FBS, LP ratio 500:1 to 100,000:1: 5 to 20 times
  relative expression level of the Firefly luciferase gene against general lipid nanoparticles, MutuDC1940 cells, no serum, LP ratio 500:1 to 1,000:1: 5 to 20 times

## antibody-bound lipid nanoparticle carrying a fragment of the NLDC145 antibody conjugated with the membrane scaffold protein MSP1E3D1 (scFv)
  relative expression level of the Firefly luciferase gene against general lipid nanoparticles, MutuDC1940 cells, 10% FBS, LP ratio 5,000:1 to 100,000:1: 5 to 20 times
  relative expression level of the Firefly luciferase gene against general lipid nanoparticles, MutuDC1940 cells, no serum, LP ratio 5,000:1 to 10,000:1: 5 to 20 times
